# Test results: paper doi:10.1101/2024.01.22.576751 (bioRxiv, 2024)
# B1: Escherichia coli mechanosensitive channel of small conductance MscS, wild type (natural protein, E. coli, UniProt P0C0S1 1-286, looked up)
# chain: MEDLNVVDSINGAGSWLVANQALLLSYAVNIVAALAIIIVGLIIARMISNAVNRLMISRKIDATVADFLSALVRYGIIAFTLIAALGRVGVQTASVIAVLGAAGLAVGLALQGSLSNLAAGVLLVMFRPFRAGEYVDLGGVAGTVLSVQIFSTTMRTADGKIIVIPNGKIIAGNIINFSREPVRRNEFIIGVAYDSDIDQVKQILTNIIQSEDRILKDREMTVRLNELGASSINFVVRVWSNSGDLQNVYWDVLERIKREFDAAGISFPYPQMDVNFKRVKEDKAA
# Biological target: the molecule itself
# Assay: cryo-EM structure
protein,measurement,value
B1,stoichiometry N,7
